Changes are numbered by the printed parent chain. In names and notes the source's numbering stands.
T1: PUF4 RNA-binding domain (Saccharomyces cerevisiae, UniProt P25339 537-888)
T1 sequence: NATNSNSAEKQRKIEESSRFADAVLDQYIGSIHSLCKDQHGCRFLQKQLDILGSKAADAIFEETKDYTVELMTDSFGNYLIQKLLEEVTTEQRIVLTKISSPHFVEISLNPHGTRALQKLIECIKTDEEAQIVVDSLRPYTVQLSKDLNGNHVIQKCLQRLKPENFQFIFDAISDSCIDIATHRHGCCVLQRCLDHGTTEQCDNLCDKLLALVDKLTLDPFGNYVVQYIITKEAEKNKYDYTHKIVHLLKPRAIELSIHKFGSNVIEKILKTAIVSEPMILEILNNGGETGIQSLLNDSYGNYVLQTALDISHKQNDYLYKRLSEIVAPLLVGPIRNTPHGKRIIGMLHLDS

B1: Ie_S4_P4E.1_K4.1_C4.1_H4.1_[+1CTCT]_A4.1_F4.1_T4.1 (ssRNA)
RNA: UUUGACAACUGAUCGUUCUUUCUUCUCUGUAUAUUAUUCUUUCUCGAUCAGUUGUCUUU
B2: Ie_S4_P4E.1_K4.1_C4.1_H4.1_[+2CCTC]_A4.1_F4.1_T4.1 (ssRNA)
RNA: B1 RNA with C25G, U26C, G29C
B3: Ie_S4_P4E.1_K4.1_C4.1_H4.1_[+1CCCT]_A4.1_F4.1_T4.1 (ssRNA)
RNA: B1 RNA with U26C
B4: Ie_S4_P4E.1_K4.1_C4.1_H4.1_[+2TTCC]_A4.1_F4.1_T4.1 (ssRNA)
RNA: B1 RNA with C25G, C27U, U28C, G29C
B5: Ie_S4_P4E.1_K4.1_C4.1_H4.1_[+1CTCTC]_A4.1_F4.1_T4.1 (ssRNA)
RNA: UUUGACAACUGAUCGUUCUUUCUUCUCUCGUAUAUUAUUCUUUCUCGAUCAGUUGUCUUU
B6: Ie_S4_P4E.1_K4.1_C4.1_H4.1_[+2CCTCT]_A4.1_F4.1_T4.1 (ssRNA)
RNA: B5 RNA with C25G, U26C, G30U
B7: Ie_S4_P3E.2_K3.1_C3.2_H3.1_[+1TCC]_A3.1_F3.1_T3.2 (ssRNA)
RNA: UUUGACAACUGAUCGUUCUUUCUCUUUCCGUAUAUAUAUUCUUUCUCGAUCAGUUGUCUUU
B8: Ie_S4_P3E.2_K3.1_C3.2_H3.1_[+2CCT]_A3.1_F3.1_T3.2 (ssRNA)
RNA: B7 RNA with U27G, G30U
B9: Ie_S4_P3E.2_K3.1_C3.2_H3.1_[+4CCT]_A3.1_F3.1_T3.2 (ssRNA)
RNA: B7 RNA with U27G, C28U, C29A, G30C, U31C, A32U
B10: Ie_S4_P3E.2_K3.1_C3.2_H3.1_[+4CTC]_A3.1_F3.1_T3.2 (ssRNA)
RNA: B7 RNA with U27G, C28U, C29A, G30C, A32C
B11: Ie_S4_P3E.2_K3.1_C3.2_H3.1_[+2TTT]_A3.1_F3.1_T3.2 (ssRNA)
RNA: B7 RNA with U27G, C28U, C29U, G30U
B12: Ie_S4_P3E.2_K3.1_C3.2_H3.1_[+1CTT]_A3.1_F3.1_T3.2 (ssRNA)
RNA: B7 RNA with U27C, C28U, C29U
B13: Ie_S4_P3E.2_K3.1_C3.2_H3.1_[+3CTT]_A3.1_F3.1_T3.2 (ssRNA)
RNA: B7 RNA with U27G, C28U, G30U
B14: Ie_S4_P3E.2_K3.1_C3.2_H3.1_[+3CCC]_A3.1_F3.1_T3.2 (ssRNA)
RNA: B7 RNA with U27G, C28U, G30C, U31C
B15: Ie_S4_P3E.2_K3.1_C3.2_H3.1_[+2TCC]_A3.1_F3.1_T3.2 (ssRNA)
RNA: B7 RNA with U27G, C28U, G30C
B16: Ie_S4_P3E.2_K3.1_C3.2_H3.1_[+4CCC]_A3.1_F3.1_T3.2 (ssRNA)
RNA: B7 RNA with U27G, C28U, C29A, G30C, U31C, A32C
B17: Ie_S4_P4E.1_K4.1_C4.1_H4.1_[+2C]_A4.1_F4.1_T4.1 (ssRNA)
RNA: UUUGACAACUGAUCGUUCUUUCUUGCUAUAUUAUUCUUUCUCGAUCAGUUGUCUUU
B18: Ie_S4_P3E.2_K3.1_C3.2_H3.1_A3.1_F3.1_[+8CCCTT]_T3.2 (ssRNA)
RNA: UUUGACAACUGAUCGUUCUUUCUCUUGUAUAUACCCUUUAUUCUUUCUCGAUCAGUUGUCUUU
B19: Ie_S4_P3E.2_K3.1_C3.2_H3.1_[+1CCTC]_A3.1_F3.1_T3.2 (ssRNA)
RNA: UUUGACAACUGAUCGUUCUUUCUCUUCCUCGUAUAUAUAUUCUUUCUCGAUCAGUUGUCUUU
B20: Ie_S4_P3E.2_K3.1_C3.2_H3.1_[+1TTCC]_A3.1_F3.1_T3.2 (ssRNA)
RNA: B19 RNA with C27U, C28U, U29C
B21: Ie_S4_P3E.2_K3.1_C3.2_H3.1_[+3TTCC]_A3.1_F3.1_T3.2 (ssRNA)
RNA: B19 RNA with C27G, C28U, C30U, G31C, U32C
B22: Ie_S4_P3E.2_K3.1_C3.2_H3.1_[+3CCCT]_A3.1_F3.1_T3.2 (ssRNA)
RNA: B19 RNA with C27G, C28U, U29C, G31C
B23: Ie_S4_P3E.2_K3.1_C3.2_H3.1_[+1CCTCT]_A3.1_F3.1_T3.2 (ssRNA)
RNA: UUUGACAACUGAUCGUUCUUUCUCUUCCUCUGUAUAUAUAUUCUUUCUCGAUCAGUUGUCUUU
B24: Ie_S4_P3E.2_K3.1_C3.2_H3.1_[+3TTCCT]_A3.1_F3.1_T3.2 (ssRNA)
RNA: B23 RNA with C27G, C28U, C30U, U31C, G32C
B25: Ie_S4_P3E.2_K3.1_C3.2_H3.1_[+3TCTCT]_A3.1_F3.1_T3.2 (ssRNA)
RNA: B23 RNA with C27G, C28U, G32C
B26: Ie_S4_P3E.2_K3.1_C3.2_H3.1_[+1TTCCT]_A3.1_F3.1_T3.2 (ssRNA)
RNA: B23 RNA with C27U, C28U, U29C
B27: Ie_S4_P3E.2_K3.1_C3.2_H3.1_[+2TCTCT]_A3.1_F3.1_T3.2 (ssRNA)
RNA: B23 RNA with C27G, C28U, U29C, C30U, U31C, G32U
B28: Ie_S4_P3E.2_K3.1_C3.2_H3.1_[+3CCTCT]_A3.1_F3.1_T3.2 (ssRNA)
RNA: B23 RNA with C27G, C28U, U29C, G32C
B29: Ie_S4_P3E.2_K3.1_C3.2_H3.1_[+2CT]_A3.1_F3.1_T3.2 (ssRNA)
RNA: UUUGACAACUGAUCGUUCUUUCUCUUGCUUAUAUAUAUUCUUUCUCGAUCAGUUGUCUUU
B30: Ie_S4_P3E.2_K3.1_C3.2_H3.1_A3.1_F3.1_[+8CC]_T3.2 (ssRNA)
RNA: B29 RNA with C28U, U29A, U34C, A35C
B31: Ie_S4_P3E.2_K3.1_C3.2_H3.1_A3.1_[+6TC]_F3.1_T3.2 (ssRNA)
RNA: B29 RNA with C28U, U29A, A33C
B32: Ib_S2_P3E.1_K3.1_C3.1_H3.1_[G2C]_A3.1_[T5C]_F3.1_T3.1 (ssRNA)
RNA: UUUGAUUAAUAUGAUAUCGUUCUUUCUUCUACAUAUUCUUUCUCGAUAUCAUAUUAAUCUUU
B33: Ib_S2_P3E.1_K3.1_C3.1_H3.1_[G2A]_A3.1_[T5A]_F3.1_T3.1 (ssRNA)
RNA: B32 RNA with C29A, C32A
B34: Ib_S2_P3E.1_K3.1_C3.1_H3.1_[G2C]_A3.1_[A6G]_F3.1_T3.1 (ssRNA)
RNA: B32 RNA with C32U, A33G
B35: Ib_S2_P3E.1_K3.1_C3.1_H3.1_[G2A]_A3.1_[T5C]_F3.1_T3.1 (ssRNA)
RNA: B32 RNA with C29A
B36: Ie_S4_P3E.2_K3.1_C3.2_H3.1_[+3C]_A3.1_F3.1_T3.2 (ssRNA)
RNA: UUUGACAACUGAUCGUUCUUUCUCUUGUCAUAUAUAUUCUUUCUCGAUCAGUUGUCUUU
B37: Ie_S4_P3E.2_K3.1_C3.2_H3.1_A3.1_F3.1_[+7C]_T3.2 (ssRNA)
RNA: B36 RNA with C29A, A30U, U31A, A32U, U33C
B38: Ie_S4_P3E.2_K3.1_C3.2_H3.1_A3.1_F3.1_[+8T]_T3.2 (ssRNA)
RNA: B1 RNA with U24C, C25U, C27G, G29A
B39: Ie_S4_P3E.2_K3.1_C3.2_H3.1_A3.1_[+6C]_F3.1_T3.2 (ssRNA)
RNA: B36 RNA with C29A, A30U, U31A, A32C
B40: Ie_S4_P4E.1_K4.1_C4.1_H4.1_[+1CT]_A4.1_F4.1_T4.1 (ssRNA)
RNA: UUUGACAACUGAUCGUUCUUUCUUCUGUAUAUUAUUCUUUCUCGAUCAGUUGUCUUU
B41: Ie_S4_P4E.1_K4.1_C4.1_H4.1_[+2TT]_A4.1_F4.1_T4.1 (ssRNA)
RNA: B40 RNA with C25G, G27U
B42: Ie_S4_P4E.1_K4.1_C4.1_H4.1_[+3CT]_A4.1_F4.1_T4.1 (ssRNA)
RNA: B40 RNA with C25G, G27C
B43: Ie_S4_P4E.1_K4.1_C4.1_H4.1_[+1CTC]_A4.1_F4.1_T4.1 (ssRNA)
RNA: UUUGACAACUGAUCGUUCUUUCUUCUCGUAUAUUAUUCUUUCUCGAUCAGUUGUCUUU
B44: Ie_S4_P4E.1_K4.1_C4.1_H4.1_[+3CCC]_A4.1_F4.1_T4.1 (ssRNA)
RNA: B43 RNA with C25G, G28C, U29C
B45: Ie_S4_P4E.1_K4.1_C4.1_H4.1_[+1TTT]_A4.1_F4.1_T4.1 (ssRNA)
RNA: B43 RNA with C25U, C27U
B46: Ie_S4_P4E.1_K4.1_C4.1_H4.1_[+3TCT]_A4.1_F4.1_T4.1 (ssRNA)
RNA: B43 RNA with C25G, C27U, G28C
B47: Ie_S4_P4E.1_K4.1_C4.1_H4.1_[+2CTC]_A4.1_F4.1_T4.1 (ssRNA)
RNA: B43 RNA with C25G, U26C, C27U, G28C
B48: Ie_S4_P4E.1_K4.1_C4.1_H4.1_[+1TCC]_A4.1_F4.1_T4.1 (ssRNA)
RNA: B43 RNA with C25U, U26C
B49: Ie_S4_P4E.1_K4.1_C4.1_H4.1_[+3TCC]_A4.1_F4.1_T4.1 (ssRNA)
RNA: B43 RNA with C25G, C27U, G28C, U29C
B50: Ie_S4_P4E.1_K4.1_C4.1_H4.1_[+2TCC]_A4.1_F4.1_T4.1 (ssRNA)
RNA: B43 RNA with C25G, G28C

target: T1, PUF4 RNA-binding domain; assay: Mg; RNA-MaP; 20 mM Na-HEPES pH 7.4, 30 mM KOAc, 0.75 mM MgCl2, 0.1% Tween-20, 5% glycerol, 0.1 mg/mL BSA, 2 mM DTT; 25 C; 0.0125-409.6 nM protein; details: tags: N-His6-TEV cleaved; C-SNAP kept, Cy3B-labelled; label: tethered on chip by stalled RNA polymerase

Row | Binder | Kd
1 | B1 | 0.000208 µM
2 | B2 | 0.105 µM
3 | B3 | 0.000155 µM
4 | B4 | 0.0239 µM
5 | B5 | 0.0057 µM
6 | B6 | 0.118 µM
7 | B7 | 0.0257 µM
8 | B8 | 0.0411 µM
9 | B9 | 0.00124 µM
10 | B10 | 0.00108 µM
11 | B11 | 0.0165 µM
12 | B12 | 0.000982 µM
13 | B13 | 0.0114 µM
14 | B14 | 0.0137 µM
15 | B15 | 0.0108 µM
16 | B16 | 0.00157 µM
17 | B17 | 0.148 µM
18 | B18 | 0.00629 µM
19 | B19 | 0.064 µM
20 | B20 | 0.0457 µM
21 | B21 | 0.0234 µM
22 | B22 | 0.0327 µM
23 | B23 | 0.000898 µM
24 | B24 | 0.0199 µM
25 | B25 | 0.0118 µM

Row | Binder | Kd
26 | B26 | 0.00116 µM
27 | B27 | 0.0236 µM
28 | B28 | 0.0213 µM
29 | B29 | 0.0608 µM
30 | B30 | 0.00291 µM
31 | B31 | 0.00211 µM
32 | B32 | > 2.3 µM
33 | B33 | 1.82 µM
34 | B34 | 0.0874 µM
35 | B35 | 0.467 µM
36 | B36 | 0.0068 µM
37 | B37 | 0.00277 µM
38 | B38 | 0.00133 µM
39 | B39 | 0.000411 µM
40 | B40 | 0.000223 µM
41 | B41 | 0.0168 µM
42 | B42 | 0.0312 µM
43 | B43 | 0.00822 µM
44 | B44 | 0.015 µM
45 | B45 | 0.000249 µM
46 | B46 | 0.00636 µM
47 | B47 | 0.108 µM
48 | B48 | 0.00721 µM
49 | B49 | 0.00768 µM
50 | B50 | 0.00871 µM
